# Source: the RNAGym collection of RNA variant scans (doi:10.7554/elife.80360)
# B1: Hammerhead Ribozyme (parent)
# chain: ACCGGAUGUGCUUUCCGGUCUGAUGAGUCCGUGAGGACGAAACAG
# Variants of: B1
# Assay: self-cleavage, relative activity (ratio to wild type); higher = more cleavage; co-transcriptional
row,Variant,self-cleavage
1,A23U C30U,0.402
2,C16U A26G,0.358
3,C15U C38G,0.689
4,A40C A41U,0.441
5,U12A G31A,0.978
6,U7C A23G,0.454
7,U21G C29A,0.3
8,G18U G45C,0.476
9,U7A A26C,0.311
10,A6G C15U,0.811
11,C11A G25U,0.329
12,G4A C29U,0.543
13,C2A C3G,0.277
14,G10U G33A,1.13
15,U12A A42C,0.359
16,G5U G27A,0.504
17,G18U G35C,0.515
18,U21G G31U,0.743
19,C29G A40U,0.325
20,U24C,0.959
21,A40C A42C,0.369
22,G25U C38G,0.382
23,U12C A44G,1.6
24,U19G G45C,0.312

row,Variant,self-cleavage
1,U32A A37G,1.16
2,G4C U12G,0.599
3,U13A G33A,1.29
4,G39U G45A,0.351
5,G5C C20U,0.358
6,C38A G39U,0.315
7,G36U A41U,0.372
8,G4A A40C,0.359
9,G5U G8C,0.942
10,G5U G8A,0.748
11,A23G C29U,0.356
12,G17U G25A,0.347
13,U19A A23G,0.426
14,C30G U32A,0.632
15,U19A A37G,0.326
16,U12G C38A,0.711
17,U9C U12C,0.982
18,G4A G17A,0.337
19,C3G C11U,0.314
20,C3G C11G,0.647
21,A1U U19A,1.1
22,G8U A40U,0.301
23,G22U A41G,0.311
24,U12C U28G,0.543

row,Variant,self-cleavage
1,G5A C43G,0.312
2,G5A C43U,0.467
3,G10A G39A,0.373
4,G10U G27U,0.507
5,C11A U28C,1.1
6,G4C G8A,0.543
7,C16G A37C,0.737
8,U9A G18U,0.546
9,G17U A41C,0.365
10,C11A G18U,1.04
11,G35C C38G,0.376
12,U19A C38A,0.313
13,A1U C2G,1.92
14,U7G G36A,0.624
15,C11A C16G,1.1
16,A42C C43G,0.271
17,G10C U24A,0.811
18,U14A G39C,0.276
19,C11G U19G,0.42
20,G27U C29G,0.366
21,U14C C15U,0.996
22,C2U G33A,1.14
23,C2U A23G,0.385
24,A37C A44G,0.77

row,Variant,self-cleavage
1,C15G A42G,0.276
2,C15G A42C,0.277
3,U21C A37G,0.866
4,C16U G35U,0.735
5,C16A U19G,0.295
6,A1G A42C,0.361
7,U21C G31A,0.974
8,A6U G18C,0.395
9,C20A C43A,0.321
10,U13G A23G,0.368
11,U21G C38U,0.374
12,U13A U21A,0.707
13,G22C G25A,0.409
14,U24G A41U,0.323
15,A6C C30G,0.437
16,C11U U21A,0.697
17,U9A C29G,0.602
18,C16G G36A,0.414
19,C29U C38G,0.559
20,G10C G33U,0.934
21,U7C A37G,0.771
22,G18A C30G,0.381
23,U14A G31A,0.81
24,C15A U28C,0.425

row,Variant,self-cleavage
1,A26U G39A,0.366
2,U13A G45U,1.02
3,A6G U9G,1.09
4,A1U U9A,0.565
5,C15U G27A,0.687
6,U13A A26C,0.564
7,U9C G39C,0.434
8,U9A A42G,0.218
9,C16A G18A,0.351
10,A1U A26C,0.402
11,A23G G35A,0.38
12,U24C G35C,0.461
13,G5U G36C,0.32
14,U9G G22U,0.358
15,U32C G33C,1.15
16,G33U G39U,0.343
17,A37U A40U,0.303
18,G31C A42U,0.373
19,C2A A42C,0.355
20,G17A C30U,0.622
21,U9C C15A,0.956
22,G31U G39C,0.474
23,C2A G17U,0.365
24,U19C G22A,0.282

row,Variant,self-cleavage
1,C15G G33A,0.9
2,C30U A37C,1.08
3,G5C A40G,0.237
4,A41C G45A,0.39
5,A41C G45U,0.41
6,U13A U14C,0.548
7,A26C C38G,0.33
8,G10U U13G,0.674
9,C3U G8C,0.936
10,C3U G8A,1.25
11,G35U G36U,0.463
12,A6C G18U,0.428
13,G18C G22C,0.333
14,G36U A37G,0.479
15,U32C G39U,0.369
16,U32C G39C,0.375
17,G22U C38G,0.33
18,G4U A42U,0.307
19,A1U G31A,1.03
20,U12A A34C,1.08
21,U13C G33A,1.37
22,G31A G33U,1.15
23,C2A C15G,0.319
24,A26G G39A,0.368

row,Variant,self-cleavage
1,U28A G31U,0.92
2,G4U G31C,0.56
3,C16A A40G,0.297
4,G35A C43U,0.401
5,C2G G27A,0.282
6,G10C C11G,1.17
7,G31A G36U,0.552
8,A1U G10U,0.997
9,U19A U24A,0.465
10,C16U G39C,0.391
11,C20A G39U,0.329
12,G25U C43G,0.357
13,U21A C38U,0.401
14,C16A U24A,1.34
15,A6C G35U,0.744
16,G25C G33U,0.231
17,G31C C43G,0.34
18,C29A C30G,0.372
19,U14C A42U,0.423
20,A26G C38G,0.332
21,U12C U13G,0.964
22,G31A G39U,0.315
23,U13G A34U,0.976
